Results as given in US20190233495A1 (Sanofi, published 2019).
Each block holds one binder with its values, some of them ahead of it. Non-standard residues stand in square brackets, D forms with d. 1Nal = N[C@@H](Cc1cccc2ccccc12)C(=O)O; Nle = CCCC[C@H](N)C(=O)O; Aib = CC(C)(N)C(=O)O

Target: T1, RXFP1 receptor (UniProt Q9HBX9 1-757, limits assumed)
T1 sequence (looked up): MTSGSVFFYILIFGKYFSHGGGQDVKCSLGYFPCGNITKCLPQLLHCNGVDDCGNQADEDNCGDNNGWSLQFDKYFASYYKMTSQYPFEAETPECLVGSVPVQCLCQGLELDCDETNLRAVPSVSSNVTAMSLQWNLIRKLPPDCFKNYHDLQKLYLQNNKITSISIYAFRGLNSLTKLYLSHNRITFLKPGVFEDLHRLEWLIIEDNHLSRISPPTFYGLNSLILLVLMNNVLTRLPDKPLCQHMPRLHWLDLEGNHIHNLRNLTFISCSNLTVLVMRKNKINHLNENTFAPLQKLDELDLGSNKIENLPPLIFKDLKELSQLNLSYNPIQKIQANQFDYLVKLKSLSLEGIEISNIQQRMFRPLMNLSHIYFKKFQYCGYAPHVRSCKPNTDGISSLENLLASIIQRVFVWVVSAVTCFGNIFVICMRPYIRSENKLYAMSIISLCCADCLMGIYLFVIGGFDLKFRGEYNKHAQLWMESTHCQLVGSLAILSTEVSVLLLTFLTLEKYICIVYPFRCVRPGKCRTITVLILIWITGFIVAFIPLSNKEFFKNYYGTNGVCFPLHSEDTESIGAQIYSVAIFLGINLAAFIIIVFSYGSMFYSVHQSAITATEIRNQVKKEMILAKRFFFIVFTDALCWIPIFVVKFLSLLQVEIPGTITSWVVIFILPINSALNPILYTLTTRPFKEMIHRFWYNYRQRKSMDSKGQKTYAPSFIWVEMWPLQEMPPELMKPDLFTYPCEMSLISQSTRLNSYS
Assay: cell-based or functional assay

B1: SEQ ID NO: 4 (peptide)
peptide: Ac-LEGREKVRAQI[Aib][Aib]EGMSTWS[Aib]RKK-NH2
SMILES: CC[C@H](C)[C@H](NC(=O)[C@H](CCC(N)=O)NC(=O)[C@H](C)NC(=O)[C@H](CCCNC(=N)N)NC(=O)[C@@H](NC(=O)[C@H](CCCCN)NC(=O)[C@H](CCC(=O)O)NC(=O)[C@H](CCCNC(=N)N)NC(=O)CNC(=O)[C@H](CCC(=O)O)NC(=O)[C@H](CC(C)C)NC(C)=O)C(C)C)C(=O)NC(C)(C)C(=O)NC(C)(C)C(=O)N[C@@H](CCC(=O)O)C(=O)NCC(=O)N[C@@H](CCSC)C(=O)N[C@@H](CO)C(=O)N[C@H](C(=O)N[C@@H](Cc1c[nH]c2ccccc12)C(=O)N[C@@H](CO)C(=O)NC(C)(C)C(=O)N[C@@H](CCCNC(=N)N)C(=O)N[C@@H](CCCCN)C(=O)N[C@@H](CCCCN)C(N)=O)[C@@H](C)O
cAMP assay in OVCAR 5 cells EC50: 14.1 nM
cAMP assay in OVCAR 5 cells Emax: 99%

B4: SEQ ID NO: 28 (peptide)
peptide: Ac-LEGREKVRAK(Ac)I[Aib][Aib]EG[Nle]STWS[Aib]RKK(Ac)K(Ac)-NH2
SMILES: CCCC[C@H](NC(=O)CNC(=O)[C@H](CCC(=O)O)NC(=O)C(C)(C)NC(=O)C(C)(C)NC(=O)[C@@H](NC(=O)[C@H](CCCCNC(C)=O)NC(=O)[C@H](C)NC(=O)[C@H](CCCNC(=N)N)NC(=O)[C@@H](NC(=O)[C@H](CCCCN)NC(=O)[C@H](CCC(=O)O)NC(=O)[C@H](CCCNC(=N)N)NC(=O)CNC(=O)[C@H](CCC(=O)O)NC(=O)[C@H](CC(C)C)NC(C)=O)C(C)C)[C@@H](C)CC)C(=O)N[C@@H](CO)C(=O)N[C@H](C(=O)N[C@@H](Cc1c[nH]c2ccccc12)C(=O)N[C@@H](CO)C(=O)NC(C)(C)C(=O)N[C@@H](CCCNC(=N)N)C(=O)N[C@@H](CCCCN)C(=O)N[C@@H](CCCCNC(C)=O)C(=O)N[C@@H](CCCCNC(C)=O)C(N)=O)[C@@H](C)O
cAMP assay in OVCAR 5 cells EC50: 22.5 nM
cAMP assay in OVCAR 5 cells Emax: 92%

B5: SEQ ID NO: 31 (peptide)
peptide: Ac-LEGREKVRAK(Ac)I[Aib][Aib]EG[Nle]STWS[Aib]RKQ-NH2
SMILES: CCCC[C@H](NC(=O)CNC(=O)[C@H](CCC(=O)O)NC(=O)C(C)(C)NC(=O)C(C)(C)NC(=O)[C@@H](NC(=O)[C@H](CCCCNC(C)=O)NC(=O)[C@H](C)NC(=O)[C@H](CCCNC(=N)N)NC(=O)[C@@H](NC(=O)[C@H](CCCCN)NC(=O)[C@H](CCC(=O)O)NC(=O)[C@H](CCCNC(=N)N)NC(=O)CNC(=O)[C@H](CCC(=O)O)NC(=O)[C@H](CC(C)C)NC(C)=O)C(C)C)[C@@H](C)CC)C(=O)N[C@@H](CO)C(=O)N[C@H](C(=O)N[C@@H](Cc1c[nH]c2ccccc12)C(=O)N[C@@H](CO)C(=O)NC(C)(C)C(=O)N[C@@H](CCCNC(=N)N)C(=O)N[C@@H](CCCCN)C(=O)N[C@@H](CCC(N)=O)C(N)=O)[C@@H](C)O
cAMP assay in OVCAR 5 cells EC50: 51.7 nM
cAMP assay in OVCAR 5 cells Emax: 96%

B6: SEQ ID NO: 32 (peptide)
peptide: Ac-LEGREKVRAK(Ac)I[Aib][Aib]EG[Nle]STWS[Aib]RKL-NH2
SMILES: CCCC[C@H](NC(=O)CNC(=O)[C@H](CCC(=O)O)NC(=O)C(C)(C)NC(=O)C(C)(C)NC(=O)[C@@H](NC(=O)[C@H](CCCCNC(C)=O)NC(=O)[C@H](C)NC(=O)[C@H](CCCNC(=N)N)NC(=O)[C@@H](NC(=O)[C@H](CCCCN)NC(=O)[C@H](CCC(=O)O)NC(=O)[C@H](CCCNC(=N)N)NC(=O)CNC(=O)[C@H](CCC(=O)O)NC(=O)[C@H](CC(C)C)NC(C)=O)C(C)C)[C@@H](C)CC)C(=O)N[C@@H](CO)C(=O)N[C@H](C(=O)N[C@@H](Cc1c[nH]c2ccccc12)C(=O)N[C@@H](CO)C(=O)NC(C)(C)C(=O)N[C@@H](CCCNC(=N)N)C(=O)N[C@@H](CCCCN)C(=O)N[C@@H](CC(C)C)C(N)=O)[C@@H](C)O
cAMP assay in OVCAR 5 cells EC50: 38.6 nM
cAMP assay in OVCAR 5 cells Emax: 95%

B7: SEQ ID NO: 27 (peptide)
peptide: Ac-LEGREKVRAK(Ac)I[Aib][Aib]EG[Nle]STWS[Aib]RKK(Ac)K-NH2
SMILES: CCCC[C@H](NC(=O)CNC(=O)[C@H](CCC(=O)O)NC(=O)C(C)(C)NC(=O)C(C)(C)NC(=O)[C@@H](NC(=O)[C@H](CCCCNC(C)=O)NC(=O)[C@H](C)NC(=O)[C@H](CCCNC(=N)N)NC(=O)[C@@H](NC(=O)[C@H](CCCCN)NC(=O)[C@H](CCC(=O)O)NC(=O)[C@H](CCCNC(=N)N)NC(=O)CNC(=O)[C@H](CCC(=O)O)NC(=O)[C@H](CC(C)C)NC(C)=O)C(C)C)[C@@H](C)CC)C(=O)N[C@@H](CO)C(=O)N[C@H](C(=O)N[C@@H](Cc1c[nH]c2ccccc12)C(=O)N[C@@H](CO)C(=O)NC(C)(C)C(=O)N[C@@H](CCCNC(=N)N)C(=O)N[C@@H](CCCCN)C(=O)N[C@@H](CCCCNC(C)=O)C(=O)N[C@@H](CCCCN)C(N)=O)[C@@H](C)O
cAMP assay in OVCAR 5 cells EC50: 9.5 nM
cAMP assay in OVCAR 5 cells Emax: 95%

B9: SEQ ID NO: 29 (peptide)
peptide: Ac-LEGREKVRAK(Ac)I[Aib][Aib]EG[Nle]ST[1Nal]S[Aib]RKK(Ac)-NH2
SMILES: CCCC[C@H](NC(=O)CNC(=O)[C@H](CCC(=O)O)NC(=O)C(C)(C)NC(=O)C(C)(C)NC(=O)[C@@H](NC(=O)[C@H](CCCCNC(C)=O)NC(=O)[C@H](C)NC(=O)[C@H](CCCNC(=N)N)NC(=O)[C@@H](NC(=O)[C@H](CCCCN)NC(=O)[C@H](CCC(=O)O)NC(=O)[C@H](CCCNC(=N)N)NC(=O)CNC(=O)[C@H](CCC(=O)O)NC(=O)[C@H](CC(C)C)NC(C)=O)C(C)C)[C@@H](C)CC)C(=O)N[C@@H](CO)C(=O)N[C@H](C(=O)N[C@@H](Cc1cccc2ccccc12)C(=O)N[C@@H](CO)C(=O)NC(C)(C)C(=O)N[C@@H](CCCNC(=N)N)C(=O)N[C@@H](CCCCN)C(=O)N[C@@H](CCCCNC(C)=O)C(N)=O)[C@@H](C)O
cAMP assay in OVCAR 5 cells EC50: 13.8 nM
cAMP assay in OVCAR 5 cells Emax: 98%

The next lines start with the values.

cAMP assay in OVCAR 5 cells EC50: 86.3 nM
cAMP assay in OVCAR 5 cells Emax: 105%
B2: SEQ ID NO: 33 (peptide)
peptide: Ac-LEGREKVRK(Ac)QI[Aib][Aib]EG[Nle]STWS[Aib]RKK-NH2
SMILES: CCCC[C@H](NC(=O)CNC(=O)[C@H](CCC(=O)O)NC(=O)C(C)(C)NC(=O)C(C)(C)NC(=O)[C@@H](NC(=O)[C@H](CCC(N)=O)NC(=O)[C@H](CCCCNC(C)=O)NC(=O)[C@H](CCCNC(=N)N)NC(=O)[C@@H](NC(=O)[C@H](CCCCN)NC(=O)[C@H](CCC(=O)O)NC(=O)[C@H](CCCNC(=N)N)NC(=O)CNC(=O)[C@H](CCC(=O)O)NC(=O)[C@H](CC(C)C)NC(C)=O)C(C)C)[C@@H](C)CC)C(=O)N[C@@H](CO)C(=O)N[C@H](C(=O)N[C@@H](Cc1c[nH]c2ccccc12)C(=O)N[C@@H](CO)C(=O)NC(C)(C)C(=O)N[C@@H](CCCNC(=N)N)C(=O)N[C@@H](CCCCN)C(=O)N[C@@H](CCCCN)C(N)=O)[C@@H](C)O

cAMP assay in OVCAR 5 cells EC50: 15.8 nM
B3: SEQ ID NO: 35 (peptide)
peptide: Ac-LEGREKVRAQI[Aib][Aib]EGQSTWS[Aib]RKK-NH2
SMILES: CC[C@H](C)[C@H](NC(=O)[C@H](CCC(N)=O)NC(=O)[C@H](C)NC(=O)[C@H](CCCNC(=N)N)NC(=O)[C@@H](NC(=O)[C@H](CCCCN)NC(=O)[C@H](CCC(=O)O)NC(=O)[C@H](CCCNC(=N)N)NC(=O)CNC(=O)[C@H](CCC(=O)O)NC(=O)[C@H](CC(C)C)NC(C)=O)C(C)C)C(=O)NC(C)(C)C(=O)NC(C)(C)C(=O)N[C@@H](CCC(=O)O)C(=O)NCC(=O)N[C@@H](CCC(N)=O)C(=O)N[C@@H](CO)C(=O)N[C@H](C(=O)N[C@@H](Cc1c[nH]c2ccccc12)C(=O)N[C@@H](CO)C(=O)NC(C)(C)C(=O)N[C@@H](CCCNC(=N)N)C(=O)N[C@@H](CCCCN)C(=O)N[C@@H](CCCCN)C(N)=O)[C@@H](C)O

cAMP assay in OVCAR 5 cells EC50: 68.7 nM
cAMP assay in OVCAR 5 cells Emax: 96%
B8: SEQ ID NO: 34 (peptide)
peptide: Ac-LEGREKVRK(Ac)[Aib]I[Aib][Aib]EG[Nle]STWS[Aib]RKK-NH2
SMILES: CCCC[C@H](NC(=O)CNC(=O)[C@H](CCC(=O)O)NC(=O)C(C)(C)NC(=O)C(C)(C)NC(=O)[C@@H](NC(=O)C(C)(C)NC(=O)[C@H](CCCCNC(C)=O)NC(=O)[C@H](CCCNC(=N)N)NC(=O)[C@@H](NC(=O)[C@H](CCCCN)NC(=O)[C@H](CCC(=O)O)NC(=O)[C@H](CCCNC(=N)N)NC(=O)CNC(=O)[C@H](CCC(=O)O)NC(=O)[C@H](CC(C)C)NC(C)=O)C(C)C)[C@@H](C)CC)C(=O)N[C@@H](CO)C(=O)N[C@H](C(=O)N[C@@H](Cc1c[nH]c2ccccc12)C(=O)N[C@@H](CO)C(=O)NC(C)(C)C(=O)N[C@@H](CCCNC(=N)N)C(=O)N[C@@H](CCCCN)C(=O)N[C@@H](CCCCN)C(N)=O)[C@@H](C)O
